Our source for the interaction score values is PMC10397247.

What all share (assay): two-hybrid library CCmax;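 note: natural log of median RNA to DNA barcode read ratio; higher means stronger binding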
Common to all, as to conditions: mean of both orientations

Assay [1] has as its target T1, 4H2143-AA.
T1 chain: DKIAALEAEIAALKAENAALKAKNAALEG

In assay [2] the target is T2, 4H733-AA.
T2 chain: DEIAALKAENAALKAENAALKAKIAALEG

Assay [3] has as its target T3, 4H278-AA.
T3 chain: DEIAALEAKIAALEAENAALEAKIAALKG

Assay [4] deals with T4, 4H355-AA.
T4 chain: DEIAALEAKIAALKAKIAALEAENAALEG

Assay [5] has as its target T5, 4H465-AA.
T5 chain: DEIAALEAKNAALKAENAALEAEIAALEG

The target in assay [6] is T6, 4H2600-AA.
T6 chain: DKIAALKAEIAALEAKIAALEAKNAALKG

Assay [7] addresses T7, P5-AA-12HGe-W.
T7 chain: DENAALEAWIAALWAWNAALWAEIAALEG

In assay [8] the target is T8, P5-AA-1HGe-W.
T8 chain: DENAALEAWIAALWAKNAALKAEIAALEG

Assay [9] deals with T9, P5-AA-1HGe-Q.
T9 chain: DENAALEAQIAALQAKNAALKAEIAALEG

The target in assay [10] is T10, 4H497-AA.
T10 chain: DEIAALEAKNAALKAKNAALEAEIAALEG

The target of assay [11] is T11, P6-AA-1HGe-Q.
T11 chain: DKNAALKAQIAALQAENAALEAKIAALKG

Assay [12] deals with T12, P6-AA-1HGe-A.
T12 chain: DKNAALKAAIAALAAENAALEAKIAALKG

As to DENAALKAKIAALEAKNAALEAKIAALEG [4H1845-AA], the interaction score was -1.68 in [1] and -1.33 in [2].

Take DENAALEAKIAALKAEIAALEAKIAALKG [4H1350-AA]: the interaction score in [3] stood at 0.443.

Consider DENAALEAENAALKAKIAALKAEIAALEG [4H1257-AA], for which the results for the interaction score in [4], in [5] and in [6] were -1.88, -0.726 and 0.518, respectively.

Consider DKNAALKAEIAALEAENAALEAKIAALKG [4H3606-AA], for which the interaction score in assay [7] is 1.04; in [8], 2.27; in assay [9], 2.38.

Molecule DENAALEAEIAALEAKIAALEAKNAALKG [4H1064-AA] registered an interaction score in assay [10] of -1.3.

In the case of DENAALEAKIAALKAKNAALKAEIAALEG [4H1401-AA], the interaction score was 2.02 in assay [11] and 2.14 in [12].
